Measured values from patent publication US20110213337A1 (BOARD OF TRUSTEES OF THE UNIVERSITY OF ARKANSAS, published 2011).

Target: T1, HLA A2.1 (A*0201) (human)
T1 construct: whole, on cells; Endogenous HLA class I molecule of T2 cells and of EBV-transformed LCL; also called HLA A0201
Assay: T2 cell HLA A2.1 stabilisation assay, flow cytometry
Excerpt: This technique employs T2 cells which are peptide transporter-deficient and thus express low endogenous HLA class I levels due to inability to load peptide and stabilize HLA class I folding for surface expression.

binding result: binds
B1: Hepsin peptide 170-178 (peptide)
peptide: SLGRWPWQV
notes: Synthesized peptide added to T2 cells or loaded onto LCL; also called hepsin 170-178
